Test results: PMC11228984, “TREK2 Lipid Binding Preferences Revealed by Native Mass Spectrometry” (Journal of the American Society for Mass Spectrometry, 2024)

Target: the molecule itself
Experiment: native MS; 200 mM ammonium acetate, 0.062% C10E5, nanoelectrospray, Orbitrap EMR, room temperature; sample expressed with kifunensine and treated with EndoH

B1: TREK2^N84Q (TREK2 residues 55-335, T58A, N144Q, C-terminal StrepTag-II) (domain or fragment, UniProt P57789-1 55-335, looked up)
chain: MEGASQGGLQTVMKWKTVVAIFVVVVVYLVTGGLVFRALEQPFESSQKNTIALEKAEFLRDHVCVSPQELETLIQHALDADNAGVSPIGQSSNNSSHWDLGSAFFFAGTVITTIGYGNIAPSTEGGKIFCILYAIFGIPLFGFLLAGIGDQLGTIFGKSIARVEKVFRKKQVSQTKIRVISTILFILAGCIVFVTIPAVIFKYIEGWTALESIYFVVVTLTTVGFGDFVAGGNAGINYREWYKPLVWFWILVGLAYFAAVLSMIGDWLRVLSKKTKEEVGE
modifications: remaining inner core GlcNAc on Asn after EndoH cleavage; potential modifications of the glycan
notes: TREK2, two-pore domain potassium channel, UniProt P57789-1, residues 55-335 with T58A; The text introduces the mutant as N144Q and then calls it TREK2^N84Q; The Addgene plasmid is named for the parent construct with T58A; also called TREK2 N144Q
stoichiometry N: 2
